± gives the standard deviation of the averaged measurements.
Each sequence was assayed on ATP (assay: switch fluorescence ratio, 500 uM ATP over buffer (Cy3 cluster intensity, sum of 5 cycles each) (fold (ratio)); higher = stronger signal-on switching upon ATP binding; sequences stand for … in TCGTCGGCAGCGTCAGATGTGTATAAGAGACAGTTTTTTTTTTTTTTTTTTTTTTTTT…TC). Details: aptamer strand: ATP DNA aptamer (quencher-CACCTGGGGGAGTATTGCGGAGGAAGG + anchor), 100 nM annealed; ATP concentration: 500 uM.
Procedure, shortened: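 The quencher-labelled ATP aptamer, at 100 nM, was annealed to Cy3-labelled switching-strand clusters on a modified Illumina MiSeq flow-cell. The clusters were imaged in selection buffer, then after 15 min with 500 uM ATP at 22 °C, and this buffer/ATP cycle ran five times with NaOH stripping and re-annealing between runs. Per-cluster fluorescence ratios, summed target-cycle over summed buffer-cycle Cy3 intensity, were averaged per switch-domain sequence. Clusters outside 100-1000 RFU were excluded.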
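Further: ATP exposure 15 min at 22 °C before imaging.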

| Sequence | switch fluorescence ratio |
| --- | --- |
| GATGGTTGCG | 1.02 ± 0.022 |
| GATGGTTGGA | 0.9825 ± 0.0056 |
| GATGGTTTTT | 1 ± 0.016 |
| GATGTACCGC | 1.12 ± 0.042 |
| GATGTAGATA | 0.9778 ± 0.0032 |
| GATGTAGGGG | 0.999 ± 0.024 |
| GATGTAGGTT | 0.98 ± 0.029 |
| GATGTAGTTT | 0.993 ± 0.027 |
| GATGTCACGA | 1.03 ± 0.028 |
| GATGTCAGGC | 0.996 ± 0.01 |
| GATGTCTATC | 1.01 ± 0.011 |
| GATGTGCGTG | 0.9956 ± 0.0091 |
| GATGTGGCTT | 0.961 ± 0.015 |
| GATGTGGTGC | 1.016 ± 0.0038 |
| GATGTGTCTG | 0.999 ± 0.026 |
| GATGTTATTA | 0.979 ± 0.038 |
| GATGTTTCAT | 0.979 ± 0.018 |
| GATGTTTTTC | 0.97003 ± 0.00087 |
| GATTAAAAAG | 0.99 ± 0.062 |
| GATTAAAAT | 1.01 ± 0.013 |
| GATTAAATAT | 1.02 ± 0.012 |
| GATTAAATTA | 1.01 ± 0.021 |
| GATTAAATTT | 1.01 ± 0.033 |
| GATTAATGGG | 0.995 ± 0.023 |
| GATTACCAAG | 1.03 ± 0.025 |

| Sequence | switch fluorescence ratio |
| --- | --- |
| GATTACGGCC | 1.06 ± 0.035 |
| GATTAGGTGT | 1.098 ± 0.0067 |
| GATTAGGTTG | 0.968 ± 0.072 |
| GATTATAATC | 1.01 ± 0.015 |
| GATTATATAT | 0.986 ± 0.015 |
| GATTATTTAG | 0.997 ± 0.019 |
| GATTCATCTA | 0.983 ± 0.029 |
| GATTCATGTT | 0.998 ± 0.013 |
| GATTCATTAG | 0.9925 ± 0.0015 |
| GATTCCAAAA | 0.975 ± 0.011 |
| GATTCGGGGA | 0.999 ± 0.014 |
| GATTCGTTTT | 1 ± 0.031 |
| GATTCTTAAG | 1 ± 0.022 |
| GATTCTTGTC | 1.01 ± 0.035 |
| GATTGAACGG | 0.997 ± 0.0086 |
| GATTGAGAGC | 0.9928 ± 0.005 |
| GATTGATGGG | 0.995 ± 0.024 |
| GATTGCATGA | 0.996 ± 0.024 |
| GATTGCCAGG | 1.05 ± 0.035 |
| GATTGCGAGG | 0.9887 ± 0.0059 |
| GATTGCGCAT | 1 ± 0.03 |
| GATTGCTTGA | 0.999 ± 0.034 |
| GATTGGAGCG | 1.008 ± 0.0031 |
| GATTGGATGA | 0.992 ± 0.045 |
| GATTGGGCTG | 0.984 ± 0.056 |

| Sequence | switch fluorescence ratio |
| --- | --- |
| GATTGGGGTG | 1 ± 0.035 |
| GATTGGGGTT | 0.978 ± 0.036 |
| GATTGGGTCC | 1 ± 0.02 |
| GATTGGGTTT | 0.999 ± 0.019 |
| GATTGGTGCG | 0.976 ± 0.015 |
| GATTGGTTGC | 0.9941 ± 0.0019 |
| GATTGTACTC | 1.022 ± 0.01 |
| GATTGTAGCT | 0.987 ± 0.023 |
| GATTGTGGGG | 0.969 ± 0.015 |
| GATTGTTCTG | 0.9804 ± 0.0049 |
| GATTTAAATA | 0.98 ± 0.018 |
| GATTTACATA | 1.01 ± 0.019 |
| GATTTACATT | 1.019 ± 0.0024 |
| GATTTAGACT | 1.04 ± 0.071 |
| GATTTATAGG | 0.972 ± 0.052 |
| GATTTATGG | 0.994 ± 0.058 |
| GATTTCACTC | 1 ± 0.026 |
| GATTTCATCA | 0.967 ± 0.057 |
| GATTTCATGG | 0.9784 ± 0.0044 |
| GATTTGTGTC | 0.955 ± 0.081 |
| GATTTTCCGT | 1.009 ± 0.009 |
| GATTTTGCGA | 0.983 ± 0.033 |
| GATTTTTACG | 1 ± 0.033 |
| GCAAAAATCT | 1.01 ± 0.046 |
| GCAAAACA | 1.3 ± 0.41 |

| Sequence | switch fluorescence ratio |
| --- | --- |
| GCAAAAGGGA | 1.01 ± 0.013 |
| GCAAAAGTTT | 0.99 ± 0.012 |
| GCAAAGTGGA | 0.9773 ± 0.0047 |
| GCAAATAGTT | 0.993 ± 0.024 |
| GCAAATGAGT | 1.003 ± 0.0082 |
| GCAAATGTGT | 0.969 ± 0.026 |
| GCAACAGCAA | 1.04 ± 0.015 |
| GCAACCCTAA | 1.02 ± 0.055 |
| GCAACCGGTC | 1.054 ± 0.0041 |
| GCAACCTGAG | 1.56 ± 0.14 |
| GCAACTTATT | 0.983 ± 0.022 |
| GCAAGAGATG | 1.01 ± 0.027 |
| GCAAGAGTGA | 1.04 ± 0.038 |
| GCAAGATGGG | 0.983 ± 0.015 |
| GCAAGATTTA | 1.01 ± 0.019 |
| GCAAGCTGCA | 1.016 ± 0.0087 |
| GCAAGGGCTA | 1.04 ± 0.045 |
| GCAAGGGGGT | 1.05 ± 0.053 |
| GCAAGGGTGT | 1.153 ± 0.0013 |
| GCAAGGGTTG | 1.01 ± 0.022 |
| GCAAGTCATG | 1.03 ± 0.04 |
| GCAAGTTGGT | 1 ± 0.017 |
| GCAATGGGAA | 1.1 ± 0.019 |
| GCAATTAAAT | 0.996 ± 0.036 |
| GCAATTCCGG | 1.21 ± 0.035 |

Reference: the supplement of paper PMC10126150
